Assay results taken from patent US9724381B2 (THE ADMINISTRATORS OF THE TULANE EDUCATIONAL FUND, priority 2009, dated 2017).
“And” between values parts separate entries of the source, which are not always exact repeats. Identical values can stand only once. Where no end group is shown, it is not given here. [ ]: non-standard residue; d: D form. d1Nal = N[C@H](Cc1cccc2ccccc12)C(=O)O; d2Nal = N[C@H](Cc1ccc2ccccc2c1)C(=O)O; dCha = N[C@H](CC1CCCCC1)C(=O)O; Orn = NCCC[C@H](N)C(=O)O; Dab = NCC[C@H](N)C(=O)O; Aib = CC(C)(N)C(=O)O; Inp = O=C(O)C1CCNCC1; GABA = NCCCC(=O)O; βAla = NCCC(=O)O

Target: Ghrelin/GHRP/GHS Receptor (Rattus norvegicus, UniProt O08725)
Test: In vivo GH release in rat (serum GH by RIA after i.v. peptide)
Conditions: for Unstimulated Basal GH release from rats: Table 5; for Unstimulated Basal GH Release from rat: Table 3; for Stimulated (S) GH release from rats / Unstimulated GH release from rats: Table 4; for Stimulated (S) GH release from rats: P + S; for Unstimulated GH release from rats: −S; for Stimulated GH release from rat: Table 2
Description: For the in vivo assay of GH Release in rat, immature female Sprague Dawley rats were obtained from Charles River from Wilmington, Mass. After arrival they were housed at 25° C. with a 14:10 h light:dark cycle. Water and Purina rat chow were available at libitum. Pups were weaned at 21 days of age.
Immature twenty six day old female Sprague Dawley rats, 3-6 rats per treatment dose, were pretreated with pentobarbital 20 minutes before iv injection of vehicle/peptide or peptide plus stimulator. Injection was made as a 0.1 ml solution. For the non-pentobarbital treated rat assay, peptides were administered iv into the tail vein of conscious rats. All animals were sacrificed by guillotine after iv peptide or vehicle. Trunk blood was collected at +10-15 minutes […], allowed to clot, centrifuged and serum stored until assayed for GH levels by RIA. The GH RIA reagents were distributed by the NIH. Control data was collected from rats treated with only the corresponding vehicle in the absence of peptide or stimulator. Control stimulated data was collected from rats treated with stimulator alone in the absence of any peptide.

[1] = peptide antagonist alone 1 μg i.v.
[2] = peptide antagonist alone 10 μg i.v.
[3] = peptide antagonist alone 30 μg i.v.
[4] = peptide antagonist alone 3 μg i.v.
[5] = non-pentobarbital rats, peptide 30 μg i.v., stimulator 10 μg
[6] = non-pentobarbital rats, peptide 30 μg i.v.
[7] = peptide antagonist 3 μg i.v. + stimulator DAla-DβNal-Ala-Trp-DPhe-Lys-NH2 1 μg
[8] = peptide antagonist 10 μg i.v. + stimulator DAla-DβNal-Ala-Trp-DPhe-Lys-NH2 1 μg
[9] = peptide antagonist 30 μg i.v. + stimulator DAla-DβNal-Ala-Trp-DPhe-Lys-NH2 1 μg
[10] = peptide antagonist 100 μg i.v. + stimulator DAla-DβNal-Ala-Trp-DPhe-Lys-NH2 1 μg
[11] = pentobarbital rats, peptide 30 μg i.v.
[12] = pentobarbital rats, peptide 100 μg i.v.
[13] = peptide antagonist 30 μg i.v. + stimulator DAla-DβNal-Ala-Trp-DPhe-Lys-NH2 0.3 μg

Ghrelin/GHRP/GHS Receptor, sequence (O08725 whole entry): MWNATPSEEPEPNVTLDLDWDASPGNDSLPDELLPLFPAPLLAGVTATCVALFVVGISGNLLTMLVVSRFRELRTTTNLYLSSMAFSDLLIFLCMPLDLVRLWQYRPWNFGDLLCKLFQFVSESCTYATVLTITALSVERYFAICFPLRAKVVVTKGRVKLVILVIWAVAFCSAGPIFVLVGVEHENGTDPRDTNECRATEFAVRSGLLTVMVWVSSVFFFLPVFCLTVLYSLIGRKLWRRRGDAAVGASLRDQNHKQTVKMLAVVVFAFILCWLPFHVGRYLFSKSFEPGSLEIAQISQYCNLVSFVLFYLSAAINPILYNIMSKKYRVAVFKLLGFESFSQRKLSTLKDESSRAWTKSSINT

αAbu-DTrp-DTrp-Orn-NH2
Unstimulated Basal GH release from rats [1]: 85 ± 25 ng/mL
Unstimulated Basal GH release from rats [2]: 88 ± 18 ng/mL
Unstimulated Basal GH release from rats [3]: 50 ± 6 ng/mL

DβNal-Ala-Trp-DPhe-Ala-NH2 ([d2Nal]AW[dF]A-NH2; N-terminus assumed; SMILES C[C@H](NC(=O)[C@@H](Cc1ccccc1)NC(=O)[C@H](Cc1c[nH]c2ccccc12)NC(=O)[C@H](C)NC(=O)[C@H](N)Cc1ccc2ccccc2c1)C(N)=O)
Unstimulated Basal GH Release from rat (peptide alone 1 μg i.v.): 623 ± 60 ng/mL
Unstimulated Basal GH Release from rat (peptide alone 3 μg i.v.): 694 ± 70 ng/mL
Unstimulated Basal GH Release from rat (peptide alone 10 μg i.v.): 654 ± 58 ng/mL
Unstimulated Basal GH Release from rat (peptide alone 30 μg i.v.): 713 ± 71 ng/mL

DThr-DαNal-DTrp-DPro-Arg-NH2 ([dT][d1Nal][dW][dP]R-NH2; N-terminus assumed; SMILES C[C@H](O)[C@@H](N)C(=O)N[C@H](Cc1cccc2ccccc12)C(=O)N[C@H](Cc1c[nH]c2ccccc12)C(=O)N1CCC[C@@H]1C(=O)N[C@@H](CCCNC(=N)N)C(N)=O)
Unstimulated Basal GH release from rats [1]: 60 ± 5 ng/mL
Unstimulated Basal GH release from rats [4]: 130 ± 24 ng/mL
Unstimulated Basal GH release from rats [2]: 134 ± 31 ng/mL

αγAbu-DTrp-DTrp-Ser-NH2 ([Dab][dW][dW]S-NH2; N-terminus assumed; SMILES NCC[C@H](N)C(=O)N[C@H](Cc1c[nH]c2ccccc12)C(=O)N[C@H](Cc1c[nH]c2ccccc12)C(=O)N[C@@H](CO)C(N)=O)
Unstimulated Basal GH release from rats [1]: 80 ± 35 ng/mL
Unstimulated Basal GH release from rats [2]: 62 ± 15 ng/mL
Unstimulated Basal GH release from rats [3]: 67 ± 8 ng/mL

Tyr-DAla-Phe-Aib-NH2 (Y[dA]F[Aib]-NH2; N-terminus assumed; SMILES C[C@@H](NC(=O)[C@@H](N)Cc1ccc(O)cc1)C(=O)N[C@@H](Cc1ccccc1)C(=O)NC(C)(C)C(N)=O) [Tyr-DAla-Phe-Alb-NH2]
Stimulated (S) GH release from rats [5]: 23 ± 5 ng/mL
Unstimulated GH release from rats [6]: 18 ± 1 ng/mL

Alaψ[CH2NH]-DβNal-Ala-Trp-DPhe-Lys-NH2 (A[d2Nal]AW[dF]K-NH2; also: Ala1-DβNal2 reduced bond ψ[CH2NH])
Stimulated GH release from rat [7]: 2771 ± 157 ng/mL
Stimulated GH release from rat [8]: 2341 ± 416 ng/mL
Stimulated GH release from rat [9]: 1948 ± 450 ng/mL
Stimulated GH release from rat [10]: 1639 ± 221 ng/mL

DAla-DβNal-DLys-DTrp-Phe-Lys-NH2 ([dA][d2Nal][dK][dW]FK-NH2; N-terminus assumed; SMILES C[C@@H](N)C(=O)N[C@H](Cc1ccc2ccccc2c1)C(=O)N[C@H](CCCCN)C(=O)N[C@H](Cc1c[nH]c2ccccc12)C(=O)N[C@@H](Cc1ccccc1)C(=O)N[C@@H](CCCCN)C(N)=O)
Stimulated GH release from rat [9]: 2884 ± 828 ng/mL
Stimulated GH release from rat [10]: 1198 ± 114 ng/mL
Stimulated (S) GH release from rats (pentobarbital rats, peptide 30 μg i.v., stimulator 1 μg): 2864 ± 828 ng/mL
Stimulated (S) GH release from rats (pentobarbital rats, peptide 100 μg i.v., stimulator 1 μg): 1198 ± 114 ng/mL
Unstimulated GH release from rats [11]: 323 ± 50 ng/mL
Unstimulated GH release from rats [12]: 812 ± 6 ng/mL

Alaψ[CH2NH]His-DTrp-Ala-Trp-DPhe-Lys-NH2 (AH[dW]AW[dF]K-NH2; also: reduced bond ψ[CH2NH] between Ala1 and His2)
Unstimulated Basal GH release from rats [1]: 127 ± 32 ng/mL
Unstimulated Basal GH release from rats [4]: 147 ± 37 ng/mL

Glyψ[CH2NH]-DβNal-Ala-Trp-DPhe-Lys-NH2 (G[d2Nal]AW[dF]K-NH2; also: reduced Gly-ψ[CH2NH] bond between Gly1 and DβNal2)
Stimulated GH release from rat (peptide antagonist 10 μg i.v. + stimulator DAla-DβNal-Ala-Trp-DPhe-Lys-NH2 0.3 μg): 1112 ± 200 ng/mL
Stimulated GH release from rat [8]: 2307 ± 176 ng/mL and 1842 ± 454 ng/mL
Stimulated GH release from rat [13]: 578 ± 82 ng/mL
Stimulated GH release from rat [9]: 890 ± 236 ng/mL and 1135 ± 140 ng/mL

Glyψ[CH2NH]-DβNal-DLys-Trp-DPhe-Lys-NH2 (G[d2Nal][dK]W[dF]K-NH2; also: reduced Gly-ψ[CH2NH] bond between Gly1 and DβNal2)
Stimulated GH release from rat (peptide antagonist 1 μg i.v. + stimulator DAla-DβNal-Ala-Trp-DPhe-Lys-NH2 1 μg): 2305 ± 320 ng/mL
Stimulated GH release from rat [7]: 1990 ± 196 ng/mL
Stimulated GH release from rat [8]: 1550 ± 284 ng/mL
Stimulated GH release from rat [9]: 946 ± 133 ng/mL
Stimulated GH release from rat [10]: 462 ± 122 ng/mL

βAla-Trp-DAla-DTrp-Phe-NH2 ([βAla]W[dA][dW]F-NH2; N-terminus assumed; SMILES C[C@@H](NC(=O)[C@H](Cc1c[nH]c2ccccc12)NC(=O)CCN)C(=O)N[C@H](Cc1c[nH]c2ccccc12)C(=O)N[C@@H](Cc1ccccc1)C(N)=O)
Unstimulated Basal GH Release from rat (peptide alone 30 μg i.v.): 341 ± 46 ng/mL
Unstimulated Basal GH Release from rat (peptide alone 100 μg i.v.): 636 ± 171 ng/mL

DcyclohexylAla-Ala-Trp-DPhe-NH2 ([dCha]AW[dF]-NH2; N-terminus assumed; SMILES C[C@H](NC(=O)[C@H](N)CC1CCCCC1)C(=O)N[C@@H](Cc1c[nH]c2ccccc12)C(=O)N[C@H](Cc1ccccc1)C(N)=O)
Unstimulated Basal GH Release from rat (peptide alone 3 μg i.v.): 181 ± 28 ng/mL
Unstimulated Basal GH Release from rat (peptide alone 10 μg i.v.): 237 ± 18 ng/mL
Unstimulated Basal GH Release from rat (peptide alone 30 μg i.v.): 354 ± 81 ng/mL
Unstimulated Basal GH Release from rat (peptide alone 100 μg i.v.): 771 ± 76 ng/mL

Ala-His-DTrp-DLys-Trp-DPhe-Lys-NH2 (AH[dW][dK]W[dF]K-NH2; N-terminus assumed; SMILES C[C@H](N)C(=O)N[C@@H](Cc1c[nH]cn1)C(=O)N[C@H](Cc1c[nH]c2ccccc12)C(=O)N[C@H](CCCCN)C(=O)N[C@@H](Cc1c[nH]c2ccccc12)C(=O)N[C@H](Cc1ccccc1)C(=O)N[C@@H](CCCCN)C(N)=O)
Stimulated GH release from rat [13]: 1487 ± 397 ng/mL

DLys-DβNal-Ala-Trp-DPhe-Lys-NH2 ([dK][d2Nal]AW[dF]K-NH2; N-terminus assumed; SMILES C[C@H](NC(=O)[C@@H](Cc1ccc2ccccc2c1)NC(=O)[C@H](N)CCCCN)C(=O)N[C@@H](Cc1c[nH]c2ccccc12)C(=O)N[C@H](Cc1ccccc1)C(=O)N[C@@H](CCCCN)C(N)=O)
Unstimulated GH release from rats (pentobarbital rats, peptide 3 μg i.v.): 616 ± 169 ng/mL
Unstimulated GH release from rats (pentobarbital rats, peptide 10 μg i.v.): 847 ± 17 ng/mL
Unstimulated GH release from rats [11]: 629 ± 146 ng/mL
Unstimulated GH release from rats [12]: 228 ± 45 ng/mL

αγAbu-DTrp-DTrp-Orn-NH2
Unstimulated Basal GH release from rats [1]: 118 ± 16 ng/mL
Unstimulated Basal GH release from rats [2]: 126 ± 27 ng/mL
Unstimulated Basal GH release from rats [3]: 79 ± 31 ng/mL

Tyr-DAla-Sar-NMePhe-NH2
Stimulated (S) GH release from rats [5]: 24 ± 6 ng/mL
Unstimulated GH release from rats [6]: 18 ± 4 ng/mL

αγAbu-DTrp-DTrp-Lys-NH2 ([Dab][dW][dW]K-NH2; N-terminus assumed; SMILES NCCCC[C@H](NC(=O)[C@@H](Cc1c[nH]c2ccccc12)NC(=O)[C@@H](Cc1c[nH]c2ccccc12)NC(=O)[C@@H](N)CCN)C(N)=O)
Unstimulated Basal GH release from rats [1]: 57 ± 7 ng/mL
Unstimulated Basal GH release from rats [4]: 84 ± 18 ng/mL
Unstimulated Basal GH release from rats [2]: 62 ± 15 ng/mL

[GABA][dW][dW][Orn]-NH2
Unstimulated Basal GH release from rats [1]: 82 ± 28 ng/mL
Unstimulated Basal GH release from rats [2]: 90 ± 5 ng/mL
Unstimulated Basal GH release from rats [3]: 113 ± 32 ng/mL

inip-Trp-Trp-Phe-NH2 ([Inp]WWF-NH2; N-terminus assumed; SMILES NC(=O)[C@H](Cc1ccccc1)NC(=O)[C@H](Cc1c[nH]c2ccccc12)NC(=O)[C@H](Cc1c[nH]c2ccccc12)NC(=O)C1CCNCC1)
Unstimulated Basal GH release from rats [2]: 69 ± 3 ng/mL
Unstimulated Basal GH release from rats [3]: 81 ± 10 ng/mL

DAla-DβNal-Ala-Ala-DAla-Lys-NH2 ([dA][d2Nal]AA[dA]K-NH2; N-terminus assumed; SMILES C[C@H](NC(=O)[C@H](C)NC(=O)[C@@H](Cc1ccc2ccccc2c1)NC(=O)[C@@H](C)N)C(=O)N[C@H](C)C(=O)N[C@@H](CCCCN)C(N)=O)
Unstimulated Basal GH Release from rat (peptide alone 3 μg i.v.): 235 ± 43 ng/mL
Unstimulated Basal GH Release from rat (peptide alone 10 μg i.v.): 178 ± 33 ng/mL
Unstimulated Basal GH Release from rat (peptide alone 30 μg i.v.): 172 ± 15 ng/mL
Unstimulated Basal GH Release from rat (peptide alone 100 μg i.v.): 185 ± 39 ng/mL
